B1: NP3-B12 (antibody, V domains shown)
VH: EVQLQQSGAELMKPGASVKISCKATGYTFSSYWIEWVKQRPGHGLEWIGEFFPGSGNTNYNEKFKGKATFTADTSSNTAYMQLSSLTSEDSAVYYCARRGLYDGYYVRYFDVWGAGTTVTVSS
VL: DIVLTQSPASLAVSLGQRATISCKASQSVDYDGYSYMNWYQQKPGQPPKLLIYAASNLESGIPARFSGSGSGTDFTLNIHPVEEEDAATYYCQQSNADPFTFGGGTKLELK
B2: NP3-C9 (antibody, V domains shown)
VH: QIQLVQSGPELKKPGETVKISCKASGYTFTDYSIHWVKQAPGKDLKWVGWINTETGEPTYADDFEGRFAFSLETSASTAFLQINNLKNEDTATYFCSRGAATGFWGQGTTLTVSS
VL: B1 VL with Y34D, A54V, E84D, S95T, A97E, F100L, G104A
B3: NP3-E6 (antibody, V domains shown)
VH: EVQLQQSGAELMRPGASVKISCKATGYTFSSYWIEWVKQRPGHGLEWIGEILPGSDNTNYNEKFKGKATLTADTSSNTAYMHLSSLTSEDSAVYSCARRLFLRRYFDVWGAGTTVTVSS
VL: B1 VL with V13L, Y34D, Y53S, S67G, A97E, L110I
B4: NP3-G8 (antibody, V domains shown)
VH: QVQLQQSGPELKKPGETVKISCKASGYTFTDYSMHWVKQAPGKGLKWLGWKNTESGEETFADDFKGRFDFSLETSASTVYLQIKNLKNEDTAAYFCARSGDIYAMDYWGQGTTVTVSS
VL: B1 VL with D1E, I2N, Y34G, N57T, R65G, A97E, F100W, L110I
B5: NP3-A7 (antibody, V domains shown)
VH: QIQLVQSGAELVKPGASVKLSCTASGFNIKDTYIHWVRQRPEQGLEWIGRIDPANGDTKYDPKFQDKATLIADTSSNTAYLQLGSLTSEDTAVYYCARYRIYYFDYWGQGTTLTVSS
VL: DIQMTQSPASVPVTPGESVSISCRSSKSLLHSNGNTYVYWFLQRPGQSPRLLIYRMSNLASGVPDRFSGSGSGTAITLRISRVEAEDVGVYSCMQHLEYPLTFGAGTKLEIK
B6: NP3-D1 (antibody, V domains shown)
VH: DVQLQESGPELAKPGASVKVSCKASGYTFTSYNIYWVKQSHGKSLEWIGYIDPYNGGTSYNQKFKGKATLTVDKSSSTAYMHLNSLTSEDSAVYYCALPWDYWGQGTSVTVSS
VL: not shown
B7: NP3-B9 (antibody, V domains shown)
VH: EVQLQQSGPELKKPGETVKISCKTSGYTFTNCGMHWVKQAPGKGLKWMGWINTYTGEPTYADDFKGRFAFSLETSVNTAYLQINNLKSEDTASYFCARRDDVYYVAGFDYWGQGTTLTVSS
VL: DIQMTQSPASLSVSVGETVTITCRASENIYSNLAWYQQKQGKSPQLLVNGATDLADGVPSRFSGSGSGTQYSLKINSLQSEDFGSYYCQLFWGTPWTFGGGTKLEIK
B8: NP3-F4 (antibody, V domains shown)
VH: EVQLVESGPELKKPGETVKIPCKTSGYTFTNYGMNWVKQAPGKGLKWMGWINTNTGEPTYAEDFKGRFAFSLETSASTAYLQISNLKNEDTATFFCARGSIYDGYYEGLYYWGQGTTLTVSS
VL: B7 VL with Q3K, A9S, N49S, G50A, D53N, G57N, L90H, T94F, W96R
B9: NP3-H9 (antibody, V domains shown)
VH: QIQLVQSGPELKKPGETVKISCKASGYTFTDYPIHWVKQAPGKGLKWMGWINAETGEPTYADDFKGRFVVSLETSASTAYLQINNLKNEDTATFFCARHYRYDEAWFVYWGQGTLVTVSA
VL: B7 VL with I2V, M4I, A9S, N49Y, G50A, Q70H, Y86F, L90H
B10: NP3-C5 (antibody, V domains shown)
VH: QIQLVQSGPELKTPGETVKISCKASGYTFTNCGMHWVKQAPGKGLKWMGWINTYTGEPIYADDFKRRFAFSLETSASTAYLQINNLNNEDTASYFCARRDDVYYVAGFDYWGQGTTVTVFS
VL: B7 VL with N49Y, L90H, I106L
B11: NP3-F10 (antibody, V domains shown)
VH: EVQLQQSGAELVEPGAPVKLSCKAFGYTFTSYWMNWVKQRPGRGLEWIGRIDPSDSETHYNQNFKDKAALTVDRSSSTAYIHLSSLTSEDSAVYYCAREVTTATKGVFSWLAYWGQGTLVTVSA
VL: DIQMTQTTSSLSASLGDRVTISCSASQDISDYLNWYQQKPDGTIKLLIYYTSSLHSGAPSRFSGSGSGTDYSLTISNLEPEDIATYYCQQYSKLPWTFGGGTKLELK
B12: NP3-E11 (antibody, V domains shown)
VH: EVQLQQSGPELVRPGVSVKISCKGSGYTFTDYVMHWVKQSHAKSLEWIGVISTYSGNTNYNQKFKGKATMTVDKSSNTVYMELARLTSEDSAIYYCTRGTGDFDYWGQGTTLTVSS
VL: DIVMTQSHKFMSTSVGDRVSITCKASQDVGSAVAWYQQKPGQSPKLLIYWTSTRHTGVPDHFTGSGSGTDFTLTINNVQSEDLADYFCHQYSSYPYTFGGGTKLEIK
B13: NP3-H12 (antibody, V domains shown)
VH: QIQLVQSGPELKKPGETVKISCKASGYMFTNYGMNWVKQAPGKGLKWMGWINTYTGEPTYADDFKGRFAFSLDISGSTAYLQINNLKNEDMATYFCARTREIWGNVDFPYWGQGTLVTVSA
VL: DILMTQAAPSLSVSVGETVTITCRASENIYSDLAWYQHKEGKSPQLLVYAATDLADGVPSRFSGSGSGTQYSLKINSLQSEDFGNYYCQHFWGTPWTFGGGTKLEIK
B14: NP3-G6 (antibody, V domains shown)
VH: EVQLVESGGGLVKPGGSLKLSCAASGFTFSDYYMSWVRQTPEKRLEWVATISDGGSYTYYPDSVKGRFTISRDNAKNNLYLHMSSLKSEDTAMYYCARGSTYGNPLDYWGQGTSVTVSS
VL: DIQMTQSPASLSASLGDRVTINCSASQGISNYLNWYQQKPDGTVKLLIYFTSSLHSGFPSRFSGSGSGTDFSLTISNLEPEDIATYYCQQYSKLPFTFGSGTKLEIK
B15: NP3-E4 (antibody, V domains shown)
VH: EVQLVESGPGLVAPSQSLSITCTVSGFSLTSYGVSWVRQPPGKGLEWLGVIWGDGSTNYHSALISRLSINKDNSKSQVFLRLNSLQTDDTATYYCAKEDDGYLFYFDYWGQGTTLTVSS
VL: B11 VL with Q3K, T7S, T8P, I44V, A58V, W96Y, L106I
B16: NP3-B4 (antibody, V domains shown)
VH: EVQLVESGGGLVQPGGSVKLSCLASGFTFSDYYMSWVRQSPEKGLEWVAEIRLESDNYATHYAESVKGKFTISRDDSKSRLYLKMNSLRGEDTGIYYCAFDVYYGGAMDYWGQGTTVTVSS
VL: DIQMTQSPSIMSASPGEKVTMTCSASSSVSYMHWYQQKSSTSPKLWIYDTSELASGVPGRFSGSRSGNSYSLTISSMEAEDVATYYCFQGSGYPLTFGGGTKLELK
B17: NP3-G12 (antibody, V domains shown)
VH: B3 VH with V2A, L11P, R13K, A24T, S30T, Y32D, K38Q, D56G, K63N, S95Y
VL: B1 VL with L4M, Y34D, S67G, S69G, A97E
B18: NP3-F7 (antibody, V domains shown)
VH: EVQLQQSGAELVRPGSSVKISCKASGYAFSSYWMNWVKQRPGQGLEWIGQIYPGNGDTYYNGKFMGKATLTADKFSSTAYMQLSGLTSEDSAVYFCARRPLFYAMDYWGQGTSVTVSS
VL: B1 VL with A9G, Y34D, A64V, A97E, F100W
B19: NP3-G9 (antibody, V domains shown)
VH: B18 VH with S31N, K38R, G56D, M65K, A68V, F75S, S77T, M81I, S84I, G85S
VL: DIQMTQSPSSLAVSLGQRASISCKASQSVDYDGESYMNWYQQKPGQPPKVLIYAASNLESGIPARFSGSGAGTDFTLSIHPVEEEDAATYYCQQSYEDPWTFGGGTKLELK

Where a chain is given by its changes, count along the chain named.

For one experiment, the target named is T1, SARS-CoV-2 N protein, full-length (SARS-CoV-2, UniProt P0DTC9 1-419).
T1 construct: mature; also called SARS-CoV-2 nucleoprotein
Nature of the experiment: Octet (BLI) kinetics. A general note: BLI is a label-free optical method that tracks binding on a fibre tip over time.
What is called Kd is a measure of binding affinity in units of concentration. As to B1, binding was put at a Kd of 1 nM.

For the molecule B2, the Kd is 0.75 nM.

For the molecule B3, binding was put at a Kd of 0.48 nM.

For B4, the Kd amounted to 2.54 nM.

B5 displayed a Kd of 2.75 nM.

A further experiment has as its target T2, SARS-CoV-2 N protein oligomerization domain (SARS-CoV-2, UniProt P0DTC9 247-364).
T2 construct: also called N olig. domain; OD
Nature of the experiment: Octet (BLI) kinetics.
Regarding B1, the affinity, expressed as Kd, was 0.78 nM.

In turn, B4 returned an equilibrium dissociation constant (Kd) of 1.05 nM. This Kd and that of the molecule before are within 1.5-fold of each other.

The target of a further experiment is T1, SARS-CoV-2 N protein, full-length. Nature of the experiment: Octet (BLI) kinetics. The source holds these as a separate data set.
Take B6: the Kd came to 5.63 nM.

For B7, the Kd was determined as 0.38 nM.

Molecule B8 came in with a Kd of 2.84 nM.

Molecule B9 returned a Kd of 5.2 nM.

In the case of B10, the Kd was found to be 0.73 nM.

As for B11, the Kd worked out at 2.53 nM. Compared with the last molecule, the Kd is about 3.5-fold higher.

B12 returned a Kd of 1.23 nM.

B13 showed a Kd of 0.72 nM.

B14 displayed a Kd of 0.43 nM. This Kd lies about 1.7-fold lower than the previous one.

B15: the dissociation constant Kd turned out to be 0.71 nM.

Another experiment concerns the target T3, SARS-CoV-2 N protein RNA-binding domain (SARS-CoV-2, UniProt P0DTC9 44-180). The experiment in a line: Octet (BLI) kinetics.
The molecule B6 had a Kd of 0.0015 nM. This lies in the picomolar range.

With B7, binding was put at a Kd of 0.47 nM.

B8 came in with a Kd of 5.57 nM.

B9 had a Kd of 3.16 nM.

As to B10, the affinity, expressed as Kd, was 0.62 nM.

On to B11, for which the dissociation constant Kd was determined as 5.6 nM.

The molecule B12 displayed a Kd of 0.57 nM.

For B13, binding was put at a Kd of 1.89 nM. This Kd lies about 3.3-fold higher than the previous one.

B14 displayed a Kd of 0.88 nM.

B15 yielded a Kd of 3.46 nM. This Kd lies about 3.9-fold higher than the previous one.

The next experiment concerns the target T2, SARS-CoV-2 N protein oligomerization …. Nature of the experiment: Octet, KD (nM) heat map.
Consider B6, for which the binding result was “no binding”.

In the case of B7, the binding result is “no binding”.

For the molecule B8, the binding result is “no binding”.

In the case of B9, the binding result is reported as “no binding”.

In the case of B10, the binding result is “no binding”.

With B11, the binding result is on record as “no binding”.

As to B12, the binding result is on record as “no binding”.

On to B13, for which the binding result is “no binding”.

For B2, the binding result is on record as “no binding”.

On to B5, for which the binding result was “no binding”.

On to B14, for which the binding result is “no binding”.

With B15, the binding result is “no binding”.

The next experiment addresses T3, SARS-CoV-2 N protein RNA-binding domain. The experiment in a line: Octet, KD (nM) heat map.
In the case of B16, the binding result is recorded as “no binding”.

Consider B1, for which the binding result is listed as “no binding”.

Take B17: the binding result is listed as “no binding”.

Take B18: the binding result is listed as “no binding”.

Turning to B2, the binding result was “no binding”.

Regarding B3, the binding result is “no binding”.

As for B4, the binding result was “no binding”.

As for B5, the binding result is “no binding”.

On to B19, for which the binding result is “no binding”.
